According to paper PMC7862292, “Crystal structures of non-oxidative decarboxylases reveal a new mechanism of action with a catalytic dyad and structural twists” (Scientific Reports, 2021):
Values belong to the molecule of their own block, whether it stands above or below them.

What was measured:
AGDC1 = target: T1, AGDC1 (Blastobotrys adeninivorans, UniProt A0A060TAG5); assay: UV decrease of gallic acid at […] nm; type: biochemical; conditions: read-out: % inhibition at 0.5 mM
T1 construct: synthetic gene in pET15b, E. coli C41, N-terminal His6 tag removed by thrombin; trimer with central K+ and peripheral Co2+ sites
T1 sequence (A0A060TAG5 entry or part of it): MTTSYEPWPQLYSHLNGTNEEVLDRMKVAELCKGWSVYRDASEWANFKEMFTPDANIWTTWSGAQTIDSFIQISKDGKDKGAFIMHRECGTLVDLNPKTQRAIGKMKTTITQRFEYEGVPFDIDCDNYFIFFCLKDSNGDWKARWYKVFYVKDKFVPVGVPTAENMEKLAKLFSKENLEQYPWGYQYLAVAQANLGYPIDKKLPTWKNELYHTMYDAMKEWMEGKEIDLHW

PPP2 [1] = target: T2, PPP2 (Madurella mycetomatis, UniProt A0A175WC91); assay: UV decrease of substrate at […] nm; type: biochemical; conditions: 0.5 mM substrate, 50 mM KPi pH 6.5, RT, 160 ug/ml enzyme; decarboxylation to pyrogallol, weaker than protocatechuic acid
T2 construct: gene MMYC01_201259; synthetic gene in pET15b, E. coli C41, N-terminal His6 tag removed by thrombin; trimer with central K+; no cobalt site

PPP2 [2] = target: T2, PPP2; assay: UV decrease of substrate at […] nm; type: biochemical; conditions: 0.5 mM substrate, 50 mM KPi pH 6.5, RT, 160 ug/ml enzyme; decarboxylation to catechol
[3] = target: AGDC1 E88A mutant (Arxula adenivorans); assay: SEC; Superdex 200 10/300; with (25 mM Tris 7.5, 50 mM KCl, 100 mM NaCl) or without (25 mM Tris 7.5, 100 mM NaCl) potassium; Bio-rad Gel Filtration Standard; all proteins eluted as a single peak
[4] = target: Pea Pathogenity Protein (PPP2) from Madurella mycetomatis (Madurella mycetomatis); assay: as above
[5] = target: Pea Pathogenity Protein (PPP2) from Madurella mycetomatis (Madurella mycetomatis); assay: crystal structure; hanging drop vapor diffusion, protein 10 mg/ml in 20 mM Tris pH 7.5, with or without 5 mM nitrocatechol alone or with 0.5 mM CoCl2; AGDC1 in PEG 3350, 0.2 M potassium salt, MES; PPP2 in PEG 3350, 0.2 M calcium chloride, MES pH 5.5
[6] = target: gallic acid decarboxylase AGDC1 from Arxula adenivorans (Arxula adenivorans); assay: SEC; Superdex 200 10/300; with (25 mM Tris 7.5, 50 mM KCl, 100 mM NaCl) or without (25 mM Tris 7.5, 100 mM NaCl) potassium; Bio-rad Gel Filtration Standard; all proteins eluted as a single peak
[7] = target: gallic acid decarboxylase AGDC1 from Arxula adenivorans (Arxula adenivorans); assay: crystal structure; hanging drop vapor diffusion, protein 10 mg/ml in 20 mM Tris pH 7.5, with or without 5 mM nitrocatechol alone or with 0.5 mM CoCl2; AGDC1 in PEG 3350, 0.2 M potassium salt, MES; PPP2 in PEG 3350, 0.2 M calcium chloride, MES pH 5.5

Molecule: O=[N+]([O-])c1ccc(O)c(O)c1 [4-nitrocatechol]
inhibition at 500 µM (AGDC1): 98%

Molecule: O=C(O)c1cc(O)c(O)c(O)c1 [gallic acid]
UV decrease of substrate at 259 nm (PPP2 [1]): PPP2 activity with PCA was ~ sevenfold higher than with GA

Molecule: O=C(O)c1ccc(O)c(O)c1 [protocatechuic acid]
UV decrease of substrate at 250 nm (PPP2 [2]): PPP2 activity with PCA was ~ sevenfold higher than with GA

Molecule: AGDC1 E88A mutant (enzyme)
stoichiometry N [3]: 3

Other lines, results leading:

stoichiometry N [4]: 3
stoichiometry N [5]: 3
Molecule: Pea Pathogenity Protein (PPP2) from Madurella mycetomatis (enzyme)

stoichiometry N [6]: 3
stoichiometry N [7]: 3
Molecule: gallic acid decarboxylase AGDC1 from Arxula adenivorans (enzyme)
